From US20220119521A1 (Pfizer, published 2022)

Columns and labels:
[1] = target: MAdCAM-IgG1 Fc fusion protein (human); test: cell-based or functional assay
[2] = target: T1, chimeric cynomolgus/human MAdCAM (cynomolgus; human, UniProt Q13477 226-382, limits assumed); test: cell-based or functional assay
T1 sequence: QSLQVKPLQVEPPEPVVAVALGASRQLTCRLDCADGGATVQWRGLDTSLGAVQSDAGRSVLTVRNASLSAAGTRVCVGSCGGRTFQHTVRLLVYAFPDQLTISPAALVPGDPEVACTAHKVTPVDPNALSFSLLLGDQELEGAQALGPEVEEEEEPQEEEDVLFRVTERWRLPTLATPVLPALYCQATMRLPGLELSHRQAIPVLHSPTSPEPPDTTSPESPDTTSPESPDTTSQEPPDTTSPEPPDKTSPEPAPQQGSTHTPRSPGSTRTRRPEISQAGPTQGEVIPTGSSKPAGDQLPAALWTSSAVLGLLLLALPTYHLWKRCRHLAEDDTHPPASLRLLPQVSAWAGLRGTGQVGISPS

B1: anti-MAdCAM monoclonal antibody 1.7.2 (antibody, human IgG2, kappa, V domains shown)
VH: EVQLVESGGGLVKPGGSLRLSCVASGFTFTNAWMIWVRQAPGKGLEWVGRIKRKTDGGTTDYAAPVKGRFTISRDDSKNTLYLQMNSLKTEDTAVYYCTTGGVAEDYWGQGTLVTVSS
VL: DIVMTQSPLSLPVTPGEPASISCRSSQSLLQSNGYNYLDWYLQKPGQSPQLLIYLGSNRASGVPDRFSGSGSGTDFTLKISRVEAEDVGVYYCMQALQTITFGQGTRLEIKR
- Mean IC50, α4β7+ JY cell adhesion to coated MAdCAM IgG1 Fc fusion [1]: 0.03 µg/mL

B2: anti-MAdCAM monoclonal antibody 1.8.2 (antibody, human IgG2, kappa, V domains shown)
VH: EVQLVESGGGLVKPGGSLRLSCVVSGFTFTNAWMIWVRQAPGKGLEWVGRIKRKTDGGTTDYAAPVKGRFTISRDDSKNTLYLQMNSLKTEDTAVYYCTTGGVAEDYWGQGTLVTVSS
VL: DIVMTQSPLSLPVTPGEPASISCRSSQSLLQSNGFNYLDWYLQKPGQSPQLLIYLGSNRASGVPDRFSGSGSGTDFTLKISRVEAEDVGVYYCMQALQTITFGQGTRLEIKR
- Mean IC50, α4β7+ JY cell adhesion to coated MAdCAM IgG1 Fc fusion [1]: 0.027 µg/mL

B3: anti-MAdCAM monoclonal antibody 7.20.5 (antibody, human IgG2, kappa, V domains shown)
VH: QVQLQESGPGLVKPSETLSLTCTVSGSSISSYHWNWIRQPAGKGLEWIGRIYTSGSTNYNPSLKSRVTMSLDTSKNQFSLKLSSVTAADTAVYYCAREGVRYYYASGSYYYGLDVWGQGTTVTVSS
VL: not shown
- Mean IC50, α4β7+ JY cell adhesion to coated MAdCAM IgG1 Fc fusion [1]: 0.025 µg/mL
- Functional IC50 (µg/mL), cynomolgus/human MAdCAM-CHO/JY adhesion assay [2]: 0.62 µg/mL

B4: anti-MAdCAM monoclonal antibody 7.26.4 (antibody, human IgG2, kappa, V domains shown)
VH: QVQLVQSGAEVKKPGASVKVSCEASGYTFTSYGIDWVRQAPGQGLEWMGWISVYSGNTNYAQKLQGRVTMSTDTSTSTAYMELRSLRSDDTAVYYCAREGSSSSGDYYYGMDVWGQGTTVTVSS
VL: DIVMTQTPLSLSVTPGQPASISCKSNQSLLYSDGKTYLFWYLQKPGQPPQLLIYEVSNRFSGVPDRFSGSGSGTDFTLKISRVEAEDVGVYYCMQSIQLPWTFGQGTKVEIKR
- Mean IC50, α4β7+ JY cell adhesion to coated MAdCAM IgG1 Fc fusion [1]: 0.021 µg/mL
- Functional IC50 (µg/mL), cynomolgus/human MAdCAM-CHO/JY adhesion assay [2]: 0.96 µg/mL

B5: anti-MAdCAM monoclonal antibody 6.14.2 (antibody, human IgG4, kappa, V domains shown)
VH: EVQLLESGGGLVQPGGSLRLSCAASGLTFNNSAMTWVRQAPGKGLEWVSTTSGSGGTTYYADSVKGRFTISRDSPKNTLYLQMNSLRAEDTAVYYCAARGYSYGTTPYEYWGQGTLVTVSS
VL: DIQMTQSPSSLSASVGDRVTITCRASRSISSYLNWYQQKPGKAPKVLIFFVSSLQSGVPSRFSGSGSGTDFTLTISSLQPEDFATYYCQQNYIPPITFGQGTRLEIRR
- Functional IC50 (µg/mL), cynomolgus/human MAdCAM-CHO/JY adhesion assay [2]: 0.53 µg/mL

B6: anti-MAdCAM monoclonal antibody 6.22.2 (antibody, human IgG4, kappa, V domains shown)
VH: QVQLVESGGGVVQPGRSLRLSCAASGHTFSSDGMHWVRQAPGKGLEWVAIIWYDGSNKYYADSVKGRFTISRDNSKNTLYLQMNSLRAEDTAVYYCARDPGYYYGMDVWGQGTTVTVSS
VL: EIVLTQSPDFQSVTPKEKVTITCRASQRIGSSLHWYQQKPDQSPKLLIKYASQSFSGVPSRFSGSGSGTNFTLTINGLEAEDAATYYCHQSGRLPLTFGGGTKVEIKR
- Functional IC50 (µg/mL), cynomolgus/human MAdCAM-CHO/JY adhesion assay [2]: 0.83 µg/mL

B7: anti-MAdCAM monoclonal antibody 6.34.2 (antibody, human IgG4, kappa, V domains shown)
VH: QVQLVESGGGVVQPGRSLRLSCAASGFTFSSYGMHWVRQAPGKGLEWVAVISNDGNNKYYADSVKGRFTISRDNSKNTLYLQMNSLSAEDTAVYYCARDSTAITYYYYGMDVWGQGTTVTVSS
VL: DIQMTQSPSSLSASVGDRVTITCRASQNISSYLNWFQQKPGKAPKLLIYAASGLKRGVPSRFSGSGSGTDFTLTIRTLQPDDFATYSCHQSYSLPFTFGPGTKVDIKR
- Functional IC50 (µg/mL), cynomolgus/human MAdCAM-CHO/JY adhesion assay [2]: 0.47 µg/mL

B8: anti-MAdCAM monoclonal antibody 6.67.1 (antibody, human IgG4, kappa, V domains shown)
VH: QVQLQESGPGLVKPSETLSLTCTVSGDSISSNYWSWIRQPAGKGLEWIGRIYTSGGTNSNPSLRGRVTILADTSKNQFSLKLSSVTAADTAVYYCARDRITIIRGLIPSFFDYWGQGTLVTVSS
VL: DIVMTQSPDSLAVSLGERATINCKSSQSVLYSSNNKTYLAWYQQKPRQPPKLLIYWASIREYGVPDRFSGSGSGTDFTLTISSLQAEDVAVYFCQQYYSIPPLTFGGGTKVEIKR
- Functional IC50 (µg/mL), cynomolgus/human MAdCAM-CHO/JY adhesion assay [2]: 0.75 µg/mL

B9: anti-MAdCAM monoclonal antibody 6.77.1 (antibody, human IgG4, kappa, V domains shown)
VH: EVQLVESGGGLVKPGGSLRLSCAASGFTFSSYSMNWVRQAPGKGLEWVSSISSSSSYIYYADSVKGRFTISRDNAKNSLYLQMNSLRAEDTAVYYCARDGYSSGWSYYYYYGMDVWGQGTTVTVSS
VL: DIVMTQTPLSLSVTPGQPASISCNSSQSLLLSDGKTYLNWYLQKPGQPPQLLIYEVSNRFSGVPDRFSGSGSGTDFTLKISRVEAEDVGVYSCMQSIQLMCSFGQGTKLEIKR
- Functional IC50 (µg/mL), cynomolgus/human MAdCAM-CHO/JY adhesion assay [2]: 0.64 µg/mL

B10: anti-MAdCAM monoclonal antibody 9.8.2 (antibody, human IgG4, kappa, V domains shown)
VH: QVQLVESGGGVVQPGRSLRLSCAASGFTFSSYGMHWVRQAPGKGLEWVAVIWYDGSNEYYADSVKGRFTISRDNSKNTLYLQMNSLRAEDTAVYYCARGAYHFAYWGQGTLVTVSS
VL: DIQMTQSPSSLSASVGDRVTITCQASQDISNYLNWYQQKPGKAPKLLIYDASNLETGVPSRFSGSGSGTDFTFTISSLQPEDIATYSCQHSDNLSITFGQGTRLEIKR
- Functional IC50 (µg/mL), cynomolgus/human MAdCAM-CHO/JY adhesion assay [2]: 0.83 µg/mL
